Experimental data as given in patent publication US20250258165A1 (OSAKA UNIVERSITY, published 2025).

Target: T1, p300 (mouse, UniProt B2RWS6 2-2412)
T1 construct: whole, on cells; Endogenous protein inside fixed, permeabilised LPS-stimulated mouse spleen B cells; It was detected through a DNA barcode-labeled antibody (clone RW128)
Test: joining PCR of DNA barcode-labeled antibodies in hydrogel with NGS; LPS-stimulated mouse spleen B cells
Description: B cells collected from mouse spleen were suspended in serum-free medium. The cells were seeded on each well of fluororesin-coated glass slides (super hydrophobic printed glass slides, 10 wells, 6 mm diameter, Matsunami Glass Ind., Ltd., Cat. No. TF1006, see FIG. 6) with an adjusted density of 5000 cells/30 μL per circle. The cells were cultured in 5% CO₂ at 37° C. for 30 minutes, and the culture supernatant was removed. […] The cells were cultured in 5% CO₂ at 37° C. for 24 hours. IL-4 was used as stimulation for B-cell activation.
The joining PCR of the antibody barcodes that come in close proximity was performed using Mastercycler nexus flat (trade-name) (Eppendorf) PCR cycler. […] The PCR reaction was performed through a program consisting of six steps: step 1: 95° C., 2 minutes; step 2: (95° C., 30 seconds and 68° C., 1 minute)×10 cycles; step 3: (95° C., 30 seconds, 55° C., 30 seconds and 68° C., 1 minute)×2 cycles; step 4: (95° C., 30 seconds, 60° C., 30 seconds and 68° C., 1 minute)×16 cycles; step 5: 68° C., 1 minute; and step 6: 4° C., infinity. The samples after completion of the PCR reaction were stored at −20° C.

T1 sequence (B2RWS6 2-2412): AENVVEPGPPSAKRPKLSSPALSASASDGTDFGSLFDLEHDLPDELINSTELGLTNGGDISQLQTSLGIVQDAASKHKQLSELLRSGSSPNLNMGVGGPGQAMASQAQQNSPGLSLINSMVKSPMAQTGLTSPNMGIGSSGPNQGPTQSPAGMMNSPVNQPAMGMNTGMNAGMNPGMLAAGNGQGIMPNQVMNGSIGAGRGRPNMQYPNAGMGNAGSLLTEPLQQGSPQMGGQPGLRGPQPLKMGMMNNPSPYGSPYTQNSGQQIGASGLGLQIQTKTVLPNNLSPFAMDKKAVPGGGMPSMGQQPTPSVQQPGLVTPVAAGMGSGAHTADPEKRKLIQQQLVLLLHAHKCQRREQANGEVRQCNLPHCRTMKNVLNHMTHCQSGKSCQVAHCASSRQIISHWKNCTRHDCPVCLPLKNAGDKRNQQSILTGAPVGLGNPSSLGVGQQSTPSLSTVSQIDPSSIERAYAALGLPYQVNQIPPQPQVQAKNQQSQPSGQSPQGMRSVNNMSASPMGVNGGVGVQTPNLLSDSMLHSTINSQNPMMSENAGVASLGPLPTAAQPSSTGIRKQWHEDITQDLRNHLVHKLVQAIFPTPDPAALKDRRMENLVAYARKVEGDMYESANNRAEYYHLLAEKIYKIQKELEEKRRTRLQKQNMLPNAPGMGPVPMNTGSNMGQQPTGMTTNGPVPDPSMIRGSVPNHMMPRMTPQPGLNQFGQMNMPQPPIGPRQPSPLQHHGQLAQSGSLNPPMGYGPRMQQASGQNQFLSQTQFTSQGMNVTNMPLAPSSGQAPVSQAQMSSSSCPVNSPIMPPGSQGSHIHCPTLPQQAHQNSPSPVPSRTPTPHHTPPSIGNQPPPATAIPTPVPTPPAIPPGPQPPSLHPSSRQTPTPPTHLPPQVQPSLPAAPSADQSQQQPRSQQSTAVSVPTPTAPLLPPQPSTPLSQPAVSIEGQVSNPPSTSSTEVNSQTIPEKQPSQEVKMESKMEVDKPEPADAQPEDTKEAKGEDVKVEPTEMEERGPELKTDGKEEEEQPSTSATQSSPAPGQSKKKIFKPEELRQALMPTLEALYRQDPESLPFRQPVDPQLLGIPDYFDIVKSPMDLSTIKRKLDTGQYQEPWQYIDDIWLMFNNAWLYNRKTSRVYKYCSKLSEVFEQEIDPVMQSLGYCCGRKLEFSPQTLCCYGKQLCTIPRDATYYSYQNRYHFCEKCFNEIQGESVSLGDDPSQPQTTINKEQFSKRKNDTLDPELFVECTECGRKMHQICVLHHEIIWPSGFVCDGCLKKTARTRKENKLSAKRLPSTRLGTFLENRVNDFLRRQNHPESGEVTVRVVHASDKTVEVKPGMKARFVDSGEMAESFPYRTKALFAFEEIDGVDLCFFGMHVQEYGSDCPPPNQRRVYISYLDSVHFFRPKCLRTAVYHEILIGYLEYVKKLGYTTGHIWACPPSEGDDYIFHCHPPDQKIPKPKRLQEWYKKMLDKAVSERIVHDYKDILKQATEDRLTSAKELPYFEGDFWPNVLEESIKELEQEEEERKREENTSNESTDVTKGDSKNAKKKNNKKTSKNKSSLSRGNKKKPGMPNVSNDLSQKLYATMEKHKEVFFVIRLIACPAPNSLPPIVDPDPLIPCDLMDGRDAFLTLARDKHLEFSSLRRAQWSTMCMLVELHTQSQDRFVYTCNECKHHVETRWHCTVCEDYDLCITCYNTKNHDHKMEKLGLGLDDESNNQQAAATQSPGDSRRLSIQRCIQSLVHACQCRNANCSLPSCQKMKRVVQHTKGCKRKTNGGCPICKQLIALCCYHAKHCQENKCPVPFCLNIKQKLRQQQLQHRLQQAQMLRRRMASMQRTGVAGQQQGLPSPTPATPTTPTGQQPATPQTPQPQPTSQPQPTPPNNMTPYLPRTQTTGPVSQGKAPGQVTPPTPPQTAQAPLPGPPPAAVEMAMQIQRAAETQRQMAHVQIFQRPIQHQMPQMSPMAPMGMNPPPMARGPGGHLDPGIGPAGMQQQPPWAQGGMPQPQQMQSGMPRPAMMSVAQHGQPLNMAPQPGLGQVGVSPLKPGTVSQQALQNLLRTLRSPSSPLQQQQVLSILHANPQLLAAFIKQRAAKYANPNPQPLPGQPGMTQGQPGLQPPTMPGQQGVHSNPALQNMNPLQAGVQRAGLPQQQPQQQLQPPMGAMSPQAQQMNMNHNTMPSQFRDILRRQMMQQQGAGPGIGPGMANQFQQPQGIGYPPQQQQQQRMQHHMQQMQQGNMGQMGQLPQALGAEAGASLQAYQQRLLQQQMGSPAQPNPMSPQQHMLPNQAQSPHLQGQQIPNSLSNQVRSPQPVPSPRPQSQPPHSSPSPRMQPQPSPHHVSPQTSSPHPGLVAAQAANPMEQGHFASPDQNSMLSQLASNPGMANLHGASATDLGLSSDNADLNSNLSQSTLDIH

B1: Lamin B1 (other, mouse, UniProt P14733 2-585, looked up)
chain: ATATPVQQQRAGSRASAPATPLSPTRLSRLQEKEELRELNDRLAVYIDKVRSLETENSALQLQVTEREEVRGRELTGLKALYETELADARRALDDTARERAKLQIELGKFKAEHDQLLLNYAKKESDLSGAQIKLREYEAALNSKDAALATALGDKKSLEGDLEDLKDQIAQLEASLSAAKKQLADETLLKVDLENRCQSLTEDLEFRKNMYEEEINETRRKHETRLVEVDSGRQIEYEYKLAQALHEMREQHDAQVRLYKEELEQTYHAKLENARLSSEMNTSTVNSAREELMESRMRIESLSSQLSNLQKESRACLERIQELEDMLAKERDNSRRMLSDREREMAEIRDQMQQQLSDYEQLLDVKLALDMEISAYRKLLEGEEERLKLSPSPSSRVTVSRASSSRSVRTTRGKRKRVDVEESEASSSVSISHSASATGNVCIEEIDVDGKFIRLKNTSEQDQPMGGWEMIRKIGDTSVSYKYTSRYVLKAGQTVTVWAANAGVTASPPTDLIWKNQNSWGTGEDVKVILKNSQGEEVAQRSTVFKTTIPEEEEEEEEEPIGVAVEEERFHQQGAPRASNKSC
notes: whole, on cells; Endogenous protein inside fixed, permeabilised LPS-stimulated mouse spleen B cells; It was detected through a DNA barcode-labeled antibody (clone L-5)
binding result: binds
